The supplement of paper PMC10567573

B1: ESRRA (parent)
chain: SLPLQDELAFAEDLVLDEEGARAA

Variants of: B1
Experiment: protein stability index of a GFP-peptide fusion (GPS, HEK-293T) (PSI 1-6); higher = more stable
Details: c terminus: a fixed tail appended
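Note: lentivirally expressed fusions sorted by FACS into six bins by GFP to DsRed ratio, PSI derived from sequencing read proportions per bin multiplied by bin number.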

Protein stability index: each site, then its substitutions
L14: W 4.92 | H 5.42 | V 4.41 | K 4.89 | N 5.38 | G 5.57 | E 4.62 | P 5.8 | F 5.22 | I 4.3 | D 5.5 | M 3.29 | Y 5.32 | R 4.2 | S 4.7 | A 4.45 | C 3.46 | Q 3.5 | T 5.13
P3: I 3.93 | S 5.28 | Y 4.61 | M 4.18 | W 4.32 | Q 4.21 | E 4.97 | H 4.45 | R 4.46 | F 4.6 | T 4.8 | K 5.08 | G 4.7 | D 4.14 | V 4.91 | C 4.78 | N 4.08 | A 4.97 | L 4.84
Q5: T 5.34 | S 4.79 | Y 2.96 | R 3.37 | L 3.02 | W 2.29 | K 2.79 | C 3.7 | M 2.48 | D 5.44 | V 3.64 | E 5.48 | G 4.43 | I 3.37 | H 3.66 | F 3.85 | N 3.77 | A 3.25 | P 4.94
E12: W 5.05 | S 5.26 | N 5.53 | T 5.41 | V 4.82 | A 5 | M 4.88 | P 5.03 | F 4.52 | R 4.36 | I 3.8 | Y 4.2 | G 4.91 | D 5.35 | Q 4.71 | K 5.28 | C 5.04 | L 4.42 | H 4.72
A11: C 5.35 | I 4.73 | F 4.89 | L 4.97 | Q 5.56 | Y 4.66 | K 4.98 | P 5.53 | S 4.13 | N 5.7 | E 5.54 | T 4.23 | G 5.17 | M 5.4 | H 5.54 | V 5.07 | R 5.65 | W 3.02 | D 5.57
L8: T 4.84 | N 5.54 | R 5.66 | V 5.84 | Y 4.77 | E 5.55 | C 5.51 | Q 5.29 | P 5.3 | A 5.07 | M 2.99 | F 5.13 | W 5.29 | D 5.43 | I 5.34 | G 5.2 | H 5.5 | K 5.45 | S 5.63
D13: W 3.31 | G 2.44 | T 3.71 | M 3.83 | F 3.31 | V 1.85 | L 2.68 | N 2.79 | H 2.98 | Y 2.64 | I 1.96 | S 3.37 | A 3.48 | E 2.92 | Q 3.68 | C 2.31 | K 3.81 | P 5.46 | R 3.68
L16: E 5.2 | R 3.55 | Q 3.54 | Y 2.44 | I 3.88 | D 5.66 | T 4.72 | H 3.6 | K 3.24 | W 3.23 | G 4.85 | C 3.63 | N 4.59 | V 4.15 | S 4.91 | A 3.83 | F 3.7 | M 3 | P 5.75
L2: T 3.52 | S 4.21 | V 3.26 | R 2.55 | P 4.27 | N 3.86 | Q 3.95 | W 2.69 | M 3.48 | Y 3.22
D17: M 2.03 | W 2.62 | K 2.46 | C 2.78 | H 3.47 | A 2.89 | G 2.15 | R 3.13 | I 2.45 | T 3.57 | Q 3.31 | F 2.93 | L 2.71 | S 2.69 | V 3.19 | N 2.86 | P 4.71 | Y 2.5 | E 3.7
L4: Y 5.26 | P 5.46 | R 5.1 | I 4.43 | E 5.59 | C 5.1 | D 4.97 | W 5.32 | S 5.39 | N 5.36 | M 3.51 | K 5.08 | T 5.43 | F 4.96 | A 5.45 | G 5.68 | Q 5.64 | V 5.02 | H 5.41
E7: P 5.58 | S 3.29 | W 4.16 | Q 3.56 | V 2.03 | H 3.94 | Y 3.88 | M 3.26 | T 4.4 | F 3.92 | G 5.2 | L 3.66 | D 3.63 | N 4.51 | R 4.96 | I 2.46 | C 3.5 | K 4.84 | A 2.41
A9: W 3.68 | S 3.42 | T 2.63 | Y 4.19 | M 3.2 | D 5.39 | N 3.88 | R 3.38 | F 4.56 | V 4.88 | H 3.67 | K 2.63 | L 3.45 | G 4.01 | C 4.11 | I 4.8 | E 4.7 | Q 3.61 | P 5.74
D6: M 3.77 | A 3.27 | C 2.42 | F 2.73 | H 2.45 | I 2.26 | Q 2.91 | G 3.37 | W 2.78 | P 4.04 | S 3.25 | N 2.92 | R 2.65 | K 2.81 | T 2.89 | E 2.67 | V 2.5 | L 3.26 | Y 2.02
E18: G 2.93 | R 4.03 | T 2.79 | C 2.31 | Y 2.99 | K 4.48 | H 2.56 | S 2.85 | P 2.56 | F 3.24 | D 4.8 | V 3.6 | L 3.11 | M 2.42 | I 3.81 | W 2.49 | A 2.7 | Q 2.8 | N 3.68
F10: A 4.18 | D 4.18 | Y 3.54 | V 3.69 | I 3.63 | P 5.69 | M 2.52 | L 2.5 | Q 3.98 | R 3.57 | G 4.26 | S 3.04 | E 4.35 | K 2.83 | T 3.77 | W 2.96 | N 4.03 | H 3.44 | C 3.36
G20: A 4.48
E19: C 2.79 | K 2.89 | F 2.25 | N 2.63 | Y 2.77 | W 2.52 | D 2.79 | Q 2.56 | A 1.86 | R 2.02 | L 2.15 | M 1.85 | V 2.83 | H 2.33 | I 1.74 | G 1.75 | P 4.02 | S 2.79 | T 2.71
V15: C 4.28 | I 3.18 | E 5.82 | T 5.28 | K 5.57 | F 5.55 | Y 5.25 | L 3.92 | P 5.37 | D 4.89 | Q 5.49 | M 4.79 | G 5.55 | R 5.42 | N 5.68 | W 4.85 | S 5.76 | A 4.6 | H 5.45
